According to the supplement of paper PMC9170038:

System: MS2 coat protein
Experiment: apparent KD of MS2 coat protein; designed switch direction (-1 OFF switch, 1 ON switch): -1; higher = weaker reporter binding
How it was run: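 Stalled E. coli RNA polymerase transcribed designed RNA switches on Illumina chips, which were then titrated with SNAP-549-labelled MS2 coat protein, doubling from 0.7 or 1.5 nM to 3 µM. Steps lasted from 0.8–1.5 h at the lowest concentration to 10–20 min at the highest. The apparent KD is each design's median over clusters of curve-fitted normalised fluorescence.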

[1] = input ligand: microRNA oligo, concentration not stated
[2] = Eterna round: R95, input ligand: FMN 200 uM
[3] = Eterna round: R95, input ligand: microRNA oligo, concentration not stated
[4] = Eterna round: R95, input ligand: none

Which results are given for “GUCAUGUUAGGAUAUUUCCCAGCUGAGACUACAGAUUGUAGGAAGAAGGAACAUGAGGAUCACCCAUGUGAAAA [Eternabot (L2) Solution 28] (Eterna round: R97, puzzle: Exclusion 4)”?
apparent KD of MS2 coat protein (input ligand: FMN 200 uM): 36.6 nM; apparent KD of MS2 coat protein (input ligand: none): 39 nM

Which “apparent KD of MS2 coat protein” value (input ligand: FMN 200 uM) does the source give for “UCGCGCCUAGGAUAUAUAAGGACUUUCUAGUAUGUUGCGAAACAUGAGGAUCACCCAUGUAGAAGGAGGUAGUG [Eternabot (L2) Solution 89] (Eterna round: R97, puzzle: Exclusion 2)” here?
The value was 222 nM.

And the “apparent KD of MS2 coat protein” value (input ligand: none)?
Its value is 77.3 nM.

With “AGGUGUAGAGGAUAUCGAAUCCUUUACAUGAGGAUCACCCAUGUCCUGGGCACCCAGGACCGAGAAGGCUACACCA [Omei Ex5 D33] (Eterna round: R97, puzzle: Exclusion 5)” as the sequence, how does the “apparent KD of MS2 coat protein” value (input ligand: FMN 200 uM) read?
Its value is 40.2 nM.

What about the “apparent KD of MS2 coat protein” value (input ligand: none) of the same sequence?
Its value is 2350 nM.

Which “apparent KD of MS2 coat protein” value (input ligand: FMN 200 uM) does the source give for “AGUUGGCGAGGAUAUACAUGAGGAUCACCCAUGUGAAGAAGAAUAGUGAGGAAGAAAAGUAGAAGGCGCUGACA [Mat - Exclusion 3 - Mod of Salish D37] (Eterna round: R96, puzzle: Exclusion 3)” here?
The value was 412 nM.

What about the “apparent KD of MS2 coat protein” value [1] of the same sequence?
Its value is 33.6 nM.

What about the “apparent KD of MS2 coat protein” value (input ligand: none) of the same sequence?
Its value is 48.5 nM.

“UAGGUGUGAGGAUAUGGUAAAGAUAAGAUGAUGAAAGAACUCCAGAAGGCACAUGAGGAUCACCCAUGUAGAUA [Mat - Exclusion 4 - Mod of JL - D31] (puzzle: Exclusion 4)” was tested. Which “apparent KD of MS2 coat protein” value [2] did it give?
The value was 34.9 nM.

And the “apparent KD of MS2 coat protein” value [3]?
The value was 20 nM.

What about the “apparent KD of MS2 coat protein” value [4] of the same sequence?
The value was 20.5 nM.

For “AAUAACAAGCUGAUCCUUCACAUGAGGAUCACCCAUGUGCUCGUCUUGUAAAGUACUAUCACGAAAGUGAUAGUACA (Eterna round: R97, puzzle: Sensor, turn-off variant 1)”, which “apparent KD of MS2 coat protein” value (input ligand: FMN 200 uM) is on record?
The value was 127 nM.

And the “apparent KD of MS2 coat protein” value (input ligand: none)?
Its value is 125 nM.

With “UCUUAACAUGAGGAUCACCCAUGUGAGGAUAUGAUGCAGCAGUGGUCUACGCUGUGCAUCAGAAGGUACAUGGG (puzzle: Exclusion 1)” as the sequence, how does the “apparent KD of MS2 coat protein” value [3] read?
Its value is 26.8 nM.

Which “apparent KD of MS2 coat protein” value [2] does the source give for “CGUCCUGAAGUGAGGAUAUUGUCUCGGAUACGAAACAAGAAGGCACAUGAGGAUCACCCAUGUAAACAGGACGA [Malc #30 mod 11] (puzzle: Brourd's mod of Exclusion 4)” here?
Its value is 15.3 nM.

What about the “apparent KD of MS2 coat protein” value [3] of the same sequence?
Its value is 15.6 nM.

And the “apparent KD of MS2 coat protein” value [4]?
Its value is 16.9 nM.

Which “apparent KD of MS2 coat protein” value (input ligand: FMN 200 uM) does the source give for “UUAUUAUAUGAAGGAUAUACUUAACAUGAGGAUCACCCAUGUGGUGUUGUGAGUGAGUGAGUUUAGUAGAAGGUCAAUGAUUUU [JMF's solution 72] (Eterna round: R96, puzzle: Exclusion NG 2)” here?
Its value is 1490 nM.

What about the “apparent KD of MS2 coat protein” value [1] of the same sequence?
Its value is 186 nM.

And the “apparent KD of MS2 coat protein” value (input ligand: none)?
Its value is 428 nM.

With “AGUACUAUGCGAGCUGACUUGCGUAGUGCAGCAGGUGUAACAUGAGGAUCACCCAUGUCCUCAUUUGCUCGUCUUAU [Mat - Sensor v3 - Turn-off var 2 - D8] (puzzle: Sensor v3, turn-off variant 2)” as the sequence, how does the “apparent KD of MS2 coat protein” value [2] read?
The value was 250 nM.

What about the “apparent KD of MS2 coat protein” value [3] of the same sequence?
The value was 326 nM.

What about the “apparent KD of MS2 coat protein” value [4] of the same sequence?
Its value is 248 nM.

What does the source list for “UUUGUUUGCACAGGAUAUUGUUAUUUUUUUUUUCAAGAAGGGUGUACAUGAGGAUCACCCAUGUUAUGGUUUUAUCUUUUACUU [JR_ExcNG1_Sub011] (Eterna round: R96, puzzle: Exclusion NG 1)”?
apparent KD of MS2 coat protein (input ligand: FMN 200 uM): 764 nM; apparent KD of MS2 coat protein [1]: 765 nM; apparent KD of MS2 coat protein (input ligand: none): 1270 nM

What does the source list for “AUAAUAAAGGAGGAUAUCGUAACGGAAACGUUACGAGAAGGUCUAACAUGAGGAUCACCCAUGUUCCUCAAAUA [Mat - Exclusion 6 - Eli Mod - D50] (puzzle: Exclusion 6)”?
apparent KD of MS2 coat protein [2]: 47.8 nM; apparent KD of MS2 coat protein [3]: 35.4 nM; apparent KD of MS2 coat protein [4]: 47 nM

What does the source list for “UGACCUAAAGGAUAUACAUGAGGAUCACCCAUGUCUUCAGCUGCCGUAAGGGAUCUUAGUAGAAGGUUAGGUCG [Eternabot (L1) Solution 43] (Eterna round: R97, puzzle: Exclusion 3)”?
apparent KD of MS2 coat protein (input ligand: FMN 200 uM): 1360 nM; apparent KD of MS2 coat protein (input ligand: none): 84 nM

“AGGUCCUUCUGGAGACAUGAGGAUCACCCAUGUCGGGUCAGCGAGGAUAUCGGUCAAUAAUGUGACGAGAAGGCGCGGACCGAU [Ex NG3 #57] (Eterna round: R96, puzzle: Exclusion NG 3)” was tested. Which “apparent KD of MS2 coat protein” value (input ligand: FMN 200 uM) did it give?
Its value is 55.5 nM.

And the “apparent KD of MS2 coat protein” value [1]?
Its value is 17.1 nM.

And the “apparent KD of MS2 coat protein” value (input ligand: none)?
The value was 19.9 nM.

“AGCUAGAUAGGAUAUGCCCGAGAUAACAUGAGGAUCACCCAUGUGACCGAAUCAAAUCUAGCAGAAGGGUUUAGGA [Mod of ViennaUCT 15 - Jieux - Exclusion 5] (Eterna round: R97, puzzle: Exclusion 5)” was tested. Which “apparent KD of MS2 coat protein” value (input ligand: FMN 200 uM) did it give?
Its value is 16.5 nM.

What about the “apparent KD of MS2 coat protein” value (input ligand: none) of the same sequence?
The value was 17.2 nM.

Which results are given for “ACACUGCGAGGAUAUACAUGAGGAUCACCCAUGUUAAGGAAGUCAAGGUUAAUUUAAGGUAGAAGGCGCUUAUU [JR_Ex3_Sub013] (Eterna round: R97, puzzle: Exclusion 3)”?
apparent KD of MS2 coat protein (input ligand: FMN 200 uM): 46.2 nM; apparent KD of MS2 coat protein (input ligand: none): 39.7 nM

For “AAGAAACGAGGAUAUACAAUUGAGUGAGAGAGGGAAGUGUGACAUGAGGAUCACCCAUGUAGAAGGCGUGAGAG [JR_Exclu2_Sub086] (puzzle: Exclusion 2)”, which “apparent KD of MS2 coat protein” value [2] is on record?
Its value is 116 nM.

And the “apparent KD of MS2 coat protein” value [3]?
Its value is 82.3 nM.

What about the “apparent KD of MS2 coat protein” value [4] of the same sequence?
The value was 80.4 nM.

“UUUUAGCAAGCGAGUAUUAACAUGAGGAUCACCCAUGUGCAUCCAGUAUUACUUUUAGAUCAAGCUCGUCUUAUAUA [JR_STOV1_v2_Sub082] (Eterna round: R97, puzzle: Sensor, turn-off variant 1)” was tested. Which “apparent KD of MS2 coat protein” value (input ligand: FMN 200 uM) did it give?
The value was 199 nM.

And the “apparent KD of MS2 coat protein” value (input ligand: none)?
Its value is 285 nM.

“GUACUACAUGAGGAUCACCCAUGUCAGGAUAUUUGAAUUUCAUCAAAAGAUGAAAUUCGGAGAAGGGACAGUAC [Omei Ex1 A7] (Eterna round: R97, puzzle: Exclusion 1)” was tested. Which “apparent KD of MS2 coat protein” value (input ligand: FMN 200 uM) did it give?
The value was 31.1 nM.

What about the “apparent KD of MS2 coat protein” value (input ligand: none) of the same sequence?
The value was 21.7 nM.

For “AUCAUGUCAGGAUAUCUGAUAUGGAUCUUCGGAUCAAGUUCAGAGAAGGGACAUGAGGAUCACCCAUGUCGAAC [Ex4-3: 31] (puzzle: Exclusion 4)”, which “apparent KD of MS2 coat protein” value [3] is on record?
Its value is 25.6 nM.

Which results are given for “UUGUCUAAUGUGAGGAUAUGCUGGUCCAUAGAUCAGCAGAAGGCACAUGAGGAUCACCCAUGUGAUAACACAAU (Eterna round: R97, puzzle: Brourd's mod of Exclusion 4)”?
apparent KD of MS2 coat protein (input ligand: FMN 200 uM): 296 nM; apparent KD of MS2 coat protein (input ligand: none): 21.3 nM

For “UCAAGCUUUAAGCGUGUGAACAUGAGGAUCACCCAUGUAUUUUAGGUAAUAAGUUCUUUUAUGUAUUCUCGUCUUAU [JR_SWV3TOV1_Sub094] (puzzle: Sensor v3, turn-off variant 1)”, which “apparent KD of MS2 coat protein” value [2] is on record?
Its value is 114 nM.

And the “apparent KD of MS2 coat protein” value [3]?
Its value is 39.1 nM.

What about the “apparent KD of MS2 coat protein” value [4] of the same sequence?
The value was 136 nM.

Which results are given for “CGUUGGCGAGGAUAUACAUGAGGAUCACCCAUGUGAGAGAAAAAAGUGAGGAAGAAAAGUAGAAGGCGCUGACC [salish99_ex3_r3_049] (puzzle: Exclusion 3)”?
apparent KD of MS2 coat protein [2]: 110 nM; apparent KD of MS2 coat protein [3]: 42.7 nM; apparent KD of MS2 coat protein [4]: 45.9 nM

Which results are given for “UCUUGUUGUCCGUGAGAAUACAUGAGGAUCACCCAUGUUAGUUUGAUUAUGAUGUGUAAGUUUGUUGCUCGUUUUAU [JR_STOV1_Sub070] (Eterna round: R97, puzzle: Sensor, turn-off variant 1)”?
apparent KD of MS2 coat protein (input ligand: FMN 200 uM): 36.4 nM; apparent KD of MS2 coat protein (input ligand: none): 41.3 nM

What does the source list for “UUUGCAAGCUUAAGAUCCCACAUGAGGAUCACCCAUGUUGCUGCCGUGAGGUAGCUUUUAACUUAUGCUCGUCUUAU [JL TOV1 3.46] (Eterna round: R97, puzzle: Sensor, turn-off variant 1)”?
apparent KD of MS2 coat protein (input ligand: FMN 200 uM): 95.7 nM; apparent KD of MS2 coat protein (input ligand: none): 115 nM
